Patent US20060286609A1 (BIOCHECK, published 2006)
Numbering of substitutions follows the chain as printed.

T1: Mouse Id4: Histidine (mouse, UniProt P41139 1-161, limits assumed)
T1 construct: E. coli fusion protein (vector pGW07); also called m-Id4: His; not shown: His-tag
T1 sequence (looked up): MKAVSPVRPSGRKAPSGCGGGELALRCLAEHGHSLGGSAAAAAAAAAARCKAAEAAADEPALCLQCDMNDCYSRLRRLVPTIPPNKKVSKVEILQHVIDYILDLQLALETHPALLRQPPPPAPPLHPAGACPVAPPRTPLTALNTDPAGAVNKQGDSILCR

T2: Human Id4: Histidine (human, UniProt P47928 1-161, limits assumed)
T2 construct: E. coli fusion protein (vector pGW07); also called h-Id4: His; not shown: His-tag
T2 sequence (looked up): T1 sequence (looked up) with L125H, A130T, V133A

T3: Mouse Id1: Histidine (mouse, UniProt P20067-2 1-148)
T3 construct: E. coli fusion protein (vector pGW07); also called m-Id1-His; not shown: His-tag
T3 sequence: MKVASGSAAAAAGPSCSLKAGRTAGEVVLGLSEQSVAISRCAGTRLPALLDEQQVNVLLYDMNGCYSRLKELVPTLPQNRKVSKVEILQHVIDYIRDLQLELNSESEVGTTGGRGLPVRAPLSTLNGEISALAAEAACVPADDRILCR

T4: Mouse Id2: Histidine (mouse, UniProt P41136 1-134, limits assumed)
T4 construct: E. coli fusion protein (vector pGW07); also called m-Id2: His; not shown: His-tag
T4 sequence (looked up): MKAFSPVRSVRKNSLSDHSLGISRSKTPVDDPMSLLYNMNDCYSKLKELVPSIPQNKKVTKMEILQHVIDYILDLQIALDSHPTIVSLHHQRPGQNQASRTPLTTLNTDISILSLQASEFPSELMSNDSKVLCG

T5: Human Id2: Histidine (human, UniProt Q02363 1-134, limits assumed)
T5 construct: E. coli fusion protein (vector pGW07); also called h-Id2: His; not shown: His-tag
T5 sequence (looked up): T4 sequence (looked up) with T60S, V131A

T6: Mouse Id3: Histidine (mouse, UniProt P41133 1-119, limits assumed)
T6 construct: E. coli fusion protein (vector pGW07); also called m-Id3: His; not shown: His-tag
T6 sequence (looked up): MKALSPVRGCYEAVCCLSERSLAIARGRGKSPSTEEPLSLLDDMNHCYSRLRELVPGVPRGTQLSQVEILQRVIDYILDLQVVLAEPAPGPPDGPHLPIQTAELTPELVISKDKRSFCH

T7: Human Id3: Histidine (human, UniProt Q02535 1-119, limits assumed)
T7 construct: E. coli fusion protein (vector pGW07); also called h-Id3: His; not shown: His-tag
T7 sequence (looked up): T6 sequence (looked up) with S31G, S33A, T34A, K112N

B1: rabbit monoclonal anti-mouse Id1, clone #BCH-1/#37-2 (antibody, V domains shown)
VH: QSVEESGGRLVTPGTPLTLTCKVSGFDINSYAMDWFRQAPGKGLEWIGMMSTRGNTYYTSWAKGRFTISKTSSTTVDLKMTSLTTEDTATYFCARGGLWGPGTLVTVSS
VL: RVLTQTASPVSAAVGGTVTINCQASQSVYNGNRLGWYQLKPGQSPKELIHDASTLASGVPSRFRGSGSGTQFTLTINDVQCDDAATYYCVGSYACSTGDCNVFGGGTEVVVK
notes: Rabbit IgG from hybridoma, Protein G purified; also called m Id1 MoAb 37-2; Rabbit Monoclonal Anti-Mouse Id1 (#37-2)

Columns and labels:
[1] = biological target: Human Id1: Histidine (human) (UniProt P41134); experiment: ELISA, coated antigen, Ab 0.025 ug/ml
Sequence of Human Id1: Histidine (human) (P41134 whole entry): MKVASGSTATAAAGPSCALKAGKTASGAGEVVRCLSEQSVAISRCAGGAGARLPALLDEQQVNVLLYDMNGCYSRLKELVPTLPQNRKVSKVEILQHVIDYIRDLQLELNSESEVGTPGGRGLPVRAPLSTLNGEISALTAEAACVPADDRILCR
Mouse Id4: Histidine [2] = biological target: T1, Mouse Id4: Histidine; experiment: ELISA, coated antigen, Ab 0.025 ug/ml
Human Id4: Histidine [3] = biological target: T2, Human Id4: Histidine; experiment: ELISA, coated antigen, Ab 0.025 ug/ml
Mouse Id1: Histidine [4] = biological target: T3, Mouse Id1: Histidine; experiment: ELISA, coated antigen, Ab 0.025 ug/ml
Mouse Id2: Histidine [5] = biological target: T4, Mouse Id2: Histidine; experiment: ELISA, coated antigen, Ab 0.025 ug/ml
Human Id2: Histidine [6] = biological target: T5, Human Id2: Histidine; experiment: ELISA, coated antigen, Ab 0.025 ug/ml
Mouse Id3: Histidine [7] = biological target: T6, Mouse Id3: Histidine; experiment: ELISA, coated antigen, Ab 0.025 ug/ml
Human Id3: Histidine [8] = biological target: T7, Human Id3: Histidine; experiment: ELISA, coated antigen, Ab 0.025 ug/ml
[9] = biological target: Human Id1: Histidine (human) (UniProt P41134); experiment: ELISA, coated antigen, Ab 0.050 ug/ml
[10] = biological target: Human Id1: Histidine (human) (UniProt P41134); experiment: ELISA, coated antigen, Ab 0.100 ug/ml
[11] = biological target: Human Id1: Histidine (human) (UniProt P41134); experiment: ELISA, coated antigen, Ab 0.250 ug/ml
[12] = biological target: Human Id1: Histidine (human) (UniProt P41134); experiment: ELISA, coated antigen, Ab 0.500 ug/ml
Mouse Id3: Histidine [13] = biological target: T6, Mouse Id3: Histidine; experiment: ELISA, coated antigen, Ab 0.500 ug/ml
Human Id3: Histidine [14] = biological target: T7, Human Id3: Histidine; experiment: ELISA, coated antigen, Ab 0.500 ug/ml
[15] = biological target: Human Id1: Histidine (human) (UniProt P41134); experiment: ELISA, coated antigen, Ab 0.005 ug/ml
Mouse Id4: Histidine [16] = biological target: T1, Mouse Id4: Histidine; experiment: ELISA, coated antigen, Ab 0.005 ug/ml
Human Id4: Histidine [17] = biological target: T2, Human Id4: Histidine; experiment: ELISA, coated antigen, Ab 0.005 ug/ml
Mouse Id1: Histidine [18] = biological target: T3, Mouse Id1: Histidine; experiment: ELISA, coated antigen, Ab 0.005 ug/ml
Mouse Id2: Histidine [19] = biological target: T4, Mouse Id2: Histidine; experiment: ELISA, coated antigen, Ab 0.005 ug/ml
Human Id2: Histidine [20] = biological target: T5, Human Id2: Histidine; experiment: ELISA, coated antigen, Ab 0.005 ug/ml
Mouse Id3: Histidine [21] = biological target: T6, Mouse Id3: Histidine; experiment: ELISA, coated antigen, Ab 0.005 ug/ml
Human Id3: Histidine [22] = biological target: T7, Human Id3: Histidine; experiment: ELISA, coated antigen, Ab 0.005 ug/ml
[23] = biological target: Human Id1: Histidine (human) (UniProt P41134); experiment: ELISA, coated antigen, Ab 0.010 ug/ml
[24] = biological target: Human Id1: Histidine (human) (UniProt P41134); experiment: ELISA, coated antigen, Ab 0.000 ug/ml (blank, diluent only)

Molecule | A450 [1] [A450] | A450 (Mouse Id4: Histidine [2]) [A450] | A450 (Human Id4: Histidine [3]) [A450] | A450 (Mouse Id1: Histidine [4]) [A450] | A450 (Mouse Id2: Histidine [5]) [A450] | A450 (Human Id2: Histidine [6]) [A450] | A450 (Mouse Id3: Histidine [7]) [A450] | A450 (Human Id3: Histidine [8]) [A450] | A450 [9] [A450] | A450 [10] [A450] | A450 [11] [A450] | A450 [12] [A450] | A450 (Mouse Id3: Histidine [13]) [A450] | A450 (Human Id3: Histidine [14]) [A450] | A450 [15] [A450] | A450 (Mouse Id4: Histidine [16]) [A450] | A450 (Human Id4: Histidine [17]) [A450] | A450 (Mouse Id1: Histidine [18]) [A450] | A450 [23] [A450] | A450 [24] [A450] | further results
rabbit monoclonal anti-mouse/human Id1, clone #BCH-1/#195-14 (antibody) | 1.12 | 0.046 | 0.045 | 0.876 | 0.049 | 0.05 | 0.047 | 0.047 | 1.7 | 2.17 | 2.88 | 3.02 | 0.051 | 0.053 | 0.31 | 0.047 | 0.044 | 0.249 | 0.569 | 0.05 | A450 (Mouse Id2: Histidine [19]): 0.052 A450; A450 (Human Id2: Histidine [20]): 0.048 A450; A450 (Mouse Id3: Histidine [21]): 0.048 A450; A450 (Human Id3: Histidine [22]): 0.047 A450
rabbit monoclonal anti-human Id1, clone #BCH-2/#5-3 (antibody) | 0.728 | 0.047 | 0.049 | 0.053 | 0.048 | 0.049 | 0.046 | 0.046 | 1.22 | 1.86 | 2.76 | 3.15 | 0.05 | 0.052 | 0.209 | 0.045 | 0.049 | 0.063 | 0.362 | 0.052 | A450 (Mouse Id2: Histidine [19]): 0.048 A450; A450 (Human Id2: Histidine [20]): 0.049 A450; A450 (Mouse Id3: Histidine [21]): 0.047 A450; A450 (Human Id3: Histidine [22]): 0.048 A450
B1 | 0.073 |  |  |  |  |  |  |  | 0.092 | 0.117 | 0.187 | 0.27 |  |  | 0.057 |  |  |  | 0.056 | 0.051 | 
